According to patent publication US20120108492A1, “LIGAND-SPECIFIC NON-ANTIBODY COMPOUNDS THAT INHIBIT CR2 ACTIVATION AND METHODS OF USE THEREOF” (The Regents of the University of Colorado, priority 2008, published 2012):
Where two headings read alike, the source gives them in different places.

Key:
[1] = system: anti-CR2 SCR1-2 monoclonal antibody 171; experiment: MBP-CR2 SCR1-2-171 mAb ELISA; format: binding; conditions: mutant MBP-CR2 SCR1-2 relative to wild-type; for % 171 mAb Binding: plate-bound 171 mAb
Method: See Asokan et al. (2006) J Immunol 177:383-94; Guthridge et al. (2001) J Immunol 167:5758-66; Young et al. (2007) J Biol Chem 282:36614-36625. […] Hannan et al. (2005) J Mol Biol 346:845-58; and Young et al. (2007) J Biol Chem 282:36614-36625.
(§1) After coating, the plates were blocked using 0.1% BSA in a PBS solution, pH 7.4 for one hour at room temperature. The plates were then washed, and incubated with either wild-type or mutant MBP-CR2 SCR1-2, at concentrations ranging from 0.03125-2.0 μg/ml in PBS for one hour at room temperature. After further washing, wild-type or mutant MBP-CR2 binding was detected using commercially available horseradish peroxidase-conjugated anti-MBP mAb (New England Biolabs) according to the manufacturer's instructions.

anti-CR2 SCR1-2 mAb 629 = experiment: MBP-CR2 SCR1-2-629 mAb ELISA; format: binding; conditions: mutant MBP-CR2 SCR1-2 relative to wild-type; for % 629 mAb Bindng: plate-bound 629 mAb
Description: The excellent correlation observed between our cell-binding studies and the ELISA analyses provides proof-of-principle that the MBP-CR2 SCR1-2 ELISA is an effective means of characterizing CR2-ligand interactions. […] See Asokan et al. (2006) J Immunol 177:383-94; Guthridge et al. (2001) J Immunol 167:5758-66; Young et al. (2007) J Biol Chem 282:36614-36625. […] This epitope overlaps extensively with the binding surface on CR2 described above for EBV gp350, and also with the previously described binding sites for C3dg and C3d. Hannan et al. (2005) J Mol Biol 346:845-58; and Young et al. (2007) J Biol Chem 282:36614-36625.
as §1

EBV gp350 [2] = target: T1, EBV gp350 (Epstein-Barr virus, UniProt P03200); conditions: previously observed cell-binding study; mutant CR2 relative to wild-type; cited from earlier work
T1 sequence (P03200 1-470): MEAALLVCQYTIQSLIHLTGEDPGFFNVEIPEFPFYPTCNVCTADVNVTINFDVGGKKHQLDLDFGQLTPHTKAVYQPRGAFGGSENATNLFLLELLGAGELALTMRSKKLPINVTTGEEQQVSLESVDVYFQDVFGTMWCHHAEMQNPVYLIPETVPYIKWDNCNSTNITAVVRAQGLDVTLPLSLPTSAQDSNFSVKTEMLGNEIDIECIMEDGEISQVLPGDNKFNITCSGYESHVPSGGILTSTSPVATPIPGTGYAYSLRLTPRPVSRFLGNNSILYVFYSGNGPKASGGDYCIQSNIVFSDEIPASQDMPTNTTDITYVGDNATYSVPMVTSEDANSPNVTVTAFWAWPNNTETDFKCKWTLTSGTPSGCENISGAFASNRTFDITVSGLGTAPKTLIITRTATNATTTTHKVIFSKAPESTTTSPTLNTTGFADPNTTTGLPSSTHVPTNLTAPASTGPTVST

EBV gp350 [3] = target: T1, EBV gp350; experiment: MBP-CR2 SCR1-2 mutant-EBV gp350 ELISA; format: binding; set-up: DNA corresponding to residues 1-470 of EBV gp350/220; E. coli biotin carboxyl carrier protein (BCCP) fragment, residues 70-156; hexa-histidine (C); made in house; host or cells: human embryonic kidney 293f freestyle cells (pSecTag2/Hygro B); conditions: for EBV gp350 binding relative to wild-type CR2: mutant MBP-CR2 SCR1-2
Method: See Martin et al. (1991) J Exp Med 174:1299-311; Young et al. (2007) J Biol Chem 282:36614-36625; Guthridge et al. (2001) Biochemistry 40:5931-41; and Sarrias et al. (2001) J Immunol 167:1490-9. […] Young et al. (2007) J Biol Chem 282:36614-36625.
as §1

Row | Molecule | Weighting (171 mAb) [1] | % 171 mAb Binding [1] [%] | Weighting (629 mAb) (anti-CR2 SCR1-2 mAb 629) | % 629 mAb Bindng (anti-CR2 SCR1-2 mAb 629) [%] | EBV gp350 binding (EBV gp350 [2]) [%] | EBV gp350 binding (EBV gp350 [3]; mutant CR2 relative to wild-type CR2) [%] | EBV gp350 binding relative to wild-type CR2 (EBV gp350 [3])
1 | Y16A: single-site mutant of recombinant MBP-CR2 SCR1-2 (protein, left off: large carriers; small tags and cut ends) ISCGSPPPILNGRISAYSTPIAVGTVIRYSCSGTFRLIGEKSLLCITKDKVDGTWDKPAPKCEYFNKYSSCPEPIVPGGYKIRGSTPYRHGDSVTFACKTNFSMNGNKSVWCQANNMWGPTRLPTCVSVFPLE | +++ (+++89.9-70%) | 81.4 | ++++ (++++>90%) | 154.4 | 66.7 | 95.1 | failed to inhibit EBV gp350 binding
2 | R83A: single-site mutant of recombinant MBP-CR2 SCR1-2 (protein, left off: large carriers; small tags and cut ends) ISCGSPPPILNGRISYYSTPIAVGTVIRYSCSGTFRLIGEKSLLCITKDKVDGTWDKPAPKCEYFNKYSSCPEPIVPGGYKIAGSTPYRHGDSVTFACKTNFSMNGNKSVWCQANNMWGPTRLPTCVSVFPLE | ++++ (++++>90%) | 96.9 | ++++ (++++>90%) | 94.4 |  |  | decreased binding affinities for EBV gp350
3 | R89A: single-site mutant of recombinant MBP-CR2 SCR1-2 (protein, left off: large carriers; small tags and cut ends) ISCGSPPPILNGRISYYSTPIAVGTVIRYSCSGTFRLIGEKSLLCITKDKVDGTWDKPAPKCEYFNKYSSCPEPIVPGGYKIRGSTPYAHGDSVTFACKTNFSMNGNKSVWCQANNMWGPTRLPTCVSVFPLE | ++++ (++++>90%) | 93.9 | +++ (+++89.9-70%) | 87.7 |  |  | decreased binding affinities for EBV gp350
